Measured values from the domain aggregation screens of Martell et al. (2025).

assay: soluble fraction after stress (log2 fold change); higher = more stays soluble; pooled small domains, quantitative proteomics; details: stress: 50 degC
Method in brief: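 The measure of aggregation propensity here is the base-two logarithm of the fold change in the soluble amount of each protein after stress. A higher value means more of that protein stays in solution. Stress was applied at 50°C to pooled libraries of small protein domains, read out by high-throughput quantitative proteomics.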

Sequence | soluble fraction (log2)
HMSVKYLQIYHAIREKILSNEYAINQQLPDEITLTKEFNSSRMTVKKALDLLVSEGLIFRKRGQGTFVLSR | -2.27
HMAPNVEENSKLIGEIGMTLTPLRPSGIATINNRRVDVVSNGDFIDQDERVMVKRVQGARVVVIPV | 0.109
HMVSTDPVHLFNLGTANRRAGRASEAITSYRKFMEAAPQHPQVPEARAYIHDMEVLLQERQKSEQAASQLS | 0.0843
HMLTAPMPGIVRQVNVDTGQKVRKGQPLMVLEAMKMEHQIIAPQAGKIEAIHYNEGDRVEMGSVLISIF | -0.0961
HMEPLKLGDATGDGKINLQDVLEMQKHMAGILVLKGKFFTAADVNGNGKIELVDVLSVQKYLAGVTAEV | 0.00939
HMLSNKIEQLRKEKGYTFAKLSELSGISTGRLSDLATGKRNNPTMDTLIKLADALDVTLDELVGR | 0.14
HMEDPLGDLIGRIAAATGRPVQDIVAEVHRVVTDHFDGNLRVEAAAVILARKYGVAFEDKLSALQRSV | 0.00767
HMRNISLSLRWHSGEWTADRLKSEVLALPGAMDMTVFEPQSQAYLRVEQGFDTKLLPAGIDVH | -0.927
HMLRTLSTSEFAEAIGISESSARRLADSGDLRIRRTKGGHRKIPAEEAIRYAREIQATVVRPDLLGLST | 0.0109
HMVDYYEILGVSPDASRKDIENAWRKKMREAHPDMGGSEDKAQLLNEAHKVLSDESARAEYDASR | 0.103
HMAPQAETLLRQVMALPSKDRAVLYLHYYEGFSTREVGDMLHISQSAVTTRLLRARKKLKEIL | 0.0889
HMVEVPEQLRDLLERSIEDLAELSVRSRNSLQKENIQTLGDLVQRTEEEMLGIENFGKKSLTEIAAFL | -0.101
HMTALSAREHEVLQLITRGYTADEIAAMLQISRHTALTYVRRIYSKLKVNSKAEAIFEVRQR | -0.577
HMTPQVALNDTETAIYEKMKQEKQMLLGELRAQFDISNKLWDTSLKTLTKNQLLAVSKEDDLLFVKL | 0.113
HMNLVELKHAEEFNTLIIQDIGGRMKPAHTLASELVRKVFHNDDFNGIDPRKVFLSIIENSKVWFNVPFI | 0.119
HMRKYKIKEELPDNIYKIIQDNPGIVQKDIYDILGREYQQNISSYIYSMDKNGVIKRDKHGNSYKLYL | -0.318
HMSMDAVSLANRLLRFFQKRPGRKFTAADLAFETGMNERTGKSLVTSALEILSRTNQIEADGDGFRLKM | 0.138
HMHNISQTGRRIAGMTQERWAEALDISVESVRLYESGRGMPSDDVATRMVEVSGAPVLGYWH | -0.407
HMVINVKEILERIKLVKGFHTQIEIARFLGVSKGTISNWLARNSVDFPLVISKLDGVDLNWLFTGIGMPQ | -3.18
HMTEEVIIQNYIGKNFNDVRDELEAKGITVDEPNMKYSDEFKENTIMAQSIKPGQPLKPGGFNSIKFDVS | 0.211
HMAEQDILQSVYPHIGGQDNVSRTISRNGTLYLMLKDASAVDLKAVKQVPGIADAALERGRLTLQLEE | 0.0398
HMKSISMSKLRHLLQLYVQGRSKKLISEQTGIARNTLKKYIKEFSEAGLSLEALLALSDKELEDLFVK | -1.01
HMGMTRPLFVTDPGLVRIGLVSPIFEKLGSGKLSPQLFDQVKEDPPEQTVFDGVEFARETGIDGVIGFG | -0.124
HMAAINTYQVRKIYAIAGALGMKSRDGDDALHDLVFGMTGKQHISGLTSAEAYDVIAELEKKQ | -1.66
HMTVLVPNLTGKTLLEAEILLDQAGLKKGDVYSESNKNVPKDHIIRQKPAPNTKIQKGATIDIYRSLGPE | 0.133
HMVSRKIENPYWANKEKQHIIAEFFYPDTNKRVTASIMNDGSNRDYEEILRGYSIEQIDANTNRRLEER | 0.436

Sequence | soluble fraction (log2)
HMLLQENRKLHSKLEELQLISRAKAVLIEYLKLTEPQAHRYIEKQAMDLGLTRPQVALNILKTYE | -0.202
HMDVLSPEEWIEFRTAYNNNRYISQYGSKGATIEDDYATRLAMIGGKESYYFLNDPRWTEPGYGNLK | -0.437
HMTTIFDNINGELRRRHLTQQDLAKTIEIDRRTWSKWQDKNDMPASVLLQIAKWLNVTLDYLTRD | -2.08
HMEEEPALLRDLLAKTLEFGLIPQLSHHPALADRTQQLASAVRAAGSASALRNAAASLKSLWIDVDQ | -0.0318
HMSQDINVFIKTNPENATIIWDGESKGTNGIFKSNAGAHRLRIEMQGYESIDQDIQVSDKQFSFEYNLKKE | 0.152
HMDGIGLRVRMIREGVGLTQKQLAEHLGMQRTALVQVEAGSRKLSASELIGVARFFNITVEQFLDPEK | -3.37
HMDVNKDLLGETLEKAKSYKADDWRKASYEALQKAIVEAEAVYKDEEADQVAVDRKVAALNKAINNLEAKG | -0.234
HMDRVMPVPEALIGMRFDIAVSRMLGVSRSQAAAYIDRGQVSIAGRGSQRSAQKSEKLVQGDSIEVAIA | -0.318
HMRTSIWTAIAHSLRSDIGSGVYGPDDKLPTESALAARFGVNRHTVRHAIKALTDEGLVLPRRGAGVFVTS | -0.21
HMPMNISDIIKQAREELGMTQEDLAERLEVSRQAVSKWELGASVPSPENLRLLEELLGVELPAP | -0.0297
HMADLKVGFVHRAGSVLERELDDVLEALEMYRSALAIDPSHKPSLDALTRISQLADYREQAAEILEPLPR | -0.576
HMKTTKRERARAKLIQLLENEDRPAKEIYAGLGDIGVGSRTVEKVKKELQVTTYRSGGSWYWSLPKP | -0.169
HMSDLPLLEHARQNLSDDEFRILELTTIYGYRRVEVAKMLGEPISTINWKYNKLIKKVKTFYGEVYN | -1.02
HMSSEDTQSRDRARKELSNEMSRIMKRYGLDYQPRDNADDIMNRLKAAGADENTLAYVQEKLK | 0.134
HMSENLESEFFGIVVITQTLLQKELRDKPMTVELIRKTVEDVMSKHYSDSSVDKAKVEEELIRRFSTW | -0.164
HMPVISGQDLRVLIRDTGRERDQGISFLDDGTMVVVEDARRLIGQEVTATVTRVHQTQTGRIVFAHLSN | 0.0684
HMTEKIRLTVDEAGKNQRVDKYISTLLTQFSRSSIKTWIETGNILLDNTRTKPRTLLSPGQVIDIQPRFED | -0.643
HMTIGLLISKARTNSGLTQAELATRAGTSQAAIARYESDRVSPSVSTLERVLRAAGEELVISSS | -0.0977
HMSDPDPAEQALLRQFMTRYAAYRRRGQHPAGAFRTASLEVFGQEPSGDLRDVIVDLESGLV | -0.137
HMGEIHAQIPGLVSHLFVKEGNTVQVEQKLFILEAMKMENEIDSPIQGTVKRIHIATGSKVEKGDLIMEIS | -0.505
HMGRYDWIEQIDDPVLAERLKHLTEDDLELLTRYVFEDATQKELASQYGIGQQSVSKRLKKLKSFLTK | 0.00228
HMQNFLSITSKEKIDIGNFQLISFKFENNLYDYVISGNKSELLIFQEKTIENNNENIEKITSNF | -2.06
HMSGAKLLAPVTGTLLRYTVAEGTKVSEGQTVIMLESMKMELEINAHKAGVIHFTAAAGAQVAEGDSLAEI | -0.52
HMENEIPVPELVGMSEADAAAKLASLGLERDTQREATADEESVGKVLRQEPTPGEYVDEGHKVTIWVGE | -0.0704
HMTRRVIRAPAAGIMRSNVKLGDLVKEGDVIAWIGEHEIKAPLTGMVRGLLNDGLAVVGGFKIGDI | -0.175
HMKNEVENLSYMINRIIEYRDLNNLSNKNLANKIGISEALLSYILNGRRKLSKEIQRKIALFLLND | -1.49

Sequence | soluble fraction (log2)
HMDSVVPNVVGMTAEKANKALTDAGLNVKITGATIGSGAVVHSQSIPAGTVTSKGTVVSIEMRFAAAEGD | -0.135
HMIGERIKRARAAAGLSMQALGKQVGISANMVKKYEHDQSMPSSGVLLKLATALSVRTEYFFRPA | -1.28
HMTKLTTDERSVYLHIQNKPGVSASSIREALGYKKSKLTSILAQLLEVHKIIDTEGTGKSLKYIL | -0.0662
HMLEDIDNSIKKEIILEHYDKMLEFHGDYGAIIFRKLLHAYSKGYTGANEFRDLVNQISDKNIMRDLIESF | -1.19
HMQKIYTIARGDTLSHIVAGTLKQQGIAYTTGELYRLVNVVAQYNDILNPNRIYTGHQLDLTPLYSED | -0.103
HMEEITLIAEDEGLRLDTWLTDKLKDYSRSYIQKLMEDELVLVNGKARKANYRIKTGDEIHVSIPEPE | -0.0342
HMLQQNRAVEAEQLARKGLSYAQSNIQQAALWRLVAEATEQQGKVDAALNAKNKAMQLEMAG | 0.173
HMSSPDMSLLYSELDVKDSGQIVTILEQRNIPYEVRNNGSQIYIPSNNVQRIRLSLAQEGLPSG | -0.0716
HMLVMTDNVIKAINDLLNYEAAAGIKKKQRYTAYQIYKELSEQGVYHGSRRRMEEVVSKLRVERNQI | -2.78
HMGSREVPFSDFISKVESGSVLEVVLRGRQVEGLTDANERFQTQIPNYPALFEILERNQVRTRVEPT | 0.0852
HMFWEGYLAARREQFLKDQQVLLGNEFRSNPDFWLEVASKEWAVVEERLSTGADVSEEVQETMGLDF | -2.16
HMINDKLQHLFSLFPAMDKELKRKGITRQILWVEYKKQYPLGFGRSQFNSYFAAWKAQVSPS | -1.52
HMSTEAVVMSSSVSVKSSPDKASTDLFVLHEGTKVRTVSELGDWREIVIADGKKGWVEARTIET | ≥ 0.62
HMEGSLQEDKVKEYQDRFKEELSNDLNTANSITVLYDLIKDDTLNGTTKRYLIEDFDKILSLDLIKE | 0.0632
HMGLGQRIKARREALGLSQARLGEAVGVSLQAVSNWERDEYLPDTARLPLIARALGLTPGQLME | 0.0172
HMETPLSAADFKIVFGEEYEIGTDANGLPKMGSRINRQLQNRFLTWASVNKRKATMSAYQDWVASDPAAQ | -0.336
HMDSIDVQQKKLLTDIELGNIEGIKLFLKRHNNTINFLTIKGFHPLVYAVRNNNMEIVNLFLTT | 0.172
HMEQVPEAVGRRVRQARSDRGWTLDQLAERSEVSRRMIVNVEAGTSNASIATLLRLATALNVGLAELVA | -1.41
HMAEPLMTQIVEIEYADAEGLRENLEQFLTRLDEKTLLGSVLVDRHTNSLIIQAVRSDLERMLPLIETLDR | -0.731
HMYRPQQEFTMRDLFQNNLNGSESASVRRDALGAELGIGYGNAKRFLERLNHYGVSREEFTAALEKLESE | -0.224
HMFQEGLVAPPAYTRPESFRGWEVPEILRSGNFPAIAKWQHEESLRLTRERRPAMLEAYERRT | 0.121
HMDQNVSVPKLAGLQVEEANAILKSKGLHIEIIDSIYQKDAVPGAIIEQVPEENSKVKKGRAIYVSVYAK | -0.227
HMTLGEHILQYRTARGWSQEDLANALEVSRQSVSKWETDASTPELDKIVRLSEIFQVSIDELVTGKA | 0.108
HMFISVDGLIHMGRTHLVILGGVEFARGDMIPETGEVVKSIGADSVVLELPDTGMRRTLNFV | -2.92
